Measured values from publication PMC11584650, “An inhibitory segment within G-patch activators tunes Prp43-ATPase activity during ribosome assembly” (Nature Communications, 2024).

Experiments:
[1] = target: His6-Prp43 (S. cerevisiae) (UniProt P53131)
[2] = target: His6-Prp43 (S. cerevisiae) (UniProt P53131); remark: listed apart in the source

His6-Prp43 (S. cerevisiae), sequence (P53131 whole entry): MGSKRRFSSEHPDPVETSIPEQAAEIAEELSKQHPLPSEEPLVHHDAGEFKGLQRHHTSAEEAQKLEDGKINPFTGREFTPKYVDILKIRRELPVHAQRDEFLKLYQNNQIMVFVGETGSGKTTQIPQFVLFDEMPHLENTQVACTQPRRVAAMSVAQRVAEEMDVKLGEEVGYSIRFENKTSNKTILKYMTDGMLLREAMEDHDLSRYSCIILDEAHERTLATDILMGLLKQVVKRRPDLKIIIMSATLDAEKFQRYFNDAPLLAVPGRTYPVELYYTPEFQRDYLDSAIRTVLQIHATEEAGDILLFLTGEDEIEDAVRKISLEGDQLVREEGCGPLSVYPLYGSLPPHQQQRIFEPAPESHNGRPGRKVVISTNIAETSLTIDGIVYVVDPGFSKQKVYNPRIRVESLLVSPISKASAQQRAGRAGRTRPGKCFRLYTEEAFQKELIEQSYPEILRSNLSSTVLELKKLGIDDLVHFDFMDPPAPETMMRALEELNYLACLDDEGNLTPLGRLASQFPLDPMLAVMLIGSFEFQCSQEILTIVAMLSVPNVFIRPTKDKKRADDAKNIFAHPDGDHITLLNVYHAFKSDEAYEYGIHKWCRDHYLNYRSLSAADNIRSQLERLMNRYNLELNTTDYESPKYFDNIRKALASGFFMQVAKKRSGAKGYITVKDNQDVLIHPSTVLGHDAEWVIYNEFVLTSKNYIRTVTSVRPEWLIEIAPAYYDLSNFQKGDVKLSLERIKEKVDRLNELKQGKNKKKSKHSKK

| Substance | ATPase activity of the Prp43-T^G fusion against Prp43 with an equimolar amount of Tma23^G [1] | stimulation of Prp43 ATPase activity by Tma23^G added at a 1:1 or 10:1 molar ratio (NADH-coupled assay, 2.5 mM ATP) [2] | ATPase activity of the Prp43-P^G fusion against Prp43 with an equimolar amount of Pxr1^G [1] |
| --- | --- | --- | --- |
| GST-Tma23^G (domain or fragment) | 30 fold | 3 fold |  |
| GST-Pxr1^G (domain or fragment) |  |  | 2 fold |
